Results on 3 substances are retold here after PMC3691878.

What all share (experiment): SEC
In general terms: SEC sorts molecules by how far they enter the pores of the column.

Assay [1] deals with rainbow trout (Oncorhynchus mykiss) BALM (rainbow trout (Oncorhynchus mykiss)).
Assay [2] has as its target rainbow trout (Oncorhynchus mykiss) RANKL (rainbow trout (Oncorhynchus mykiss)).
For assay [3], the target named is rainbow trout (Oncorhynchus mykiss) TRAIL-like (rainbow trout (Oncorhynchus mykiss)).

With “rainbow trout (Oncorhynchus mykiss) BALM (ligand)”, in assay [1], the stoichiometry N (commonly a count of units in the complex or per binding partner) amounted to 3.
For the substance “rainbow trout (Oncorhynchus mykiss) RANKL (ligand)”, the stoichiometry N in assay [2] was determined as 3.
With “rainbow trout (Oncorhynchus mykiss) TRAIL-like (ligand)”, the stoichiometry N in assay [3] was 3.
